Measurements from patent US20260166140A1, “Combinations Involving Epidermal Growth Factor Receptor Tyrosine Kinase Inhibitors For the Treatment of Cancer” (AstraZeneca AB, priority 2022, published 2026).
Where a chain is given by its changes, count along the chain named.

B1: RAA22/B09-57 DuetMab (bispecific antibody, human IgG1, kappa, lambda)
heavy 1: QVQLVQSGAEVKKPGSSVKVSCKASGGTFSDNDFSWVRQAPGQGLEWMGAIVAVFRTETYAQKFQDRVKITADISTRTTYMELSSLRSEDTAVYYCARRLMSAISGPGAPLLMWGQGTLVTVSSASTKGPSVFPLAPSSKSTSGGTAALGCLVKDYFPEPVTVSWNSGALTSGVHTFPAVLQSSGLYSLSSVVTVPSSSLGTQTYICNVNHKPSNTKVDKRVEPKSCDKTHTCPPCPAPELLGGPSCVFLFPPKPKDTLMISRTPEVTCVVVDVSHEDPEVKFNWYVDGVEVHNAKTKPREEQYNSTYRVVSVLTVLHQDWLNGKEYKCKVSNKALPAPIEKTISKAKGQPREPQVCTLPPSREEMTKNQVSLSCAVKGFYPSDIAVEWESNGQPENNYKTTPPVLDSDGSFFLVSKLTVDKSRWQQGNVFSCSVMHEALHNHYTQKSLSLSPGK
heavy 2: QVQLVQSGAEVKKPGASVKVSCKASGYTFTDYYIHWVRQATGQGLEWMGWMNPNSGNTGYAQKFQGRVTMTRDTSISTAYMELSSLRSEDTAVYYCARGQGYTHSWGQGTMVTVSSASTKGPSVCPLAPSSKSTSGGTAALGCLVKDYFPEPVTVSWNSGALTSGVHTFPAVLQSSGLYSLSSVVTVPSSSLGTQTYICNVNHKPSNTKVDKRVEPKSVDKTHTCPPCPAPELLGGPSCVFLFPPKPKDTLMISRTPEVTCVVVDVSHEDPEVKFNWYVDGVEVHNAKTKPREEQYNSTYRVVSVLTVLHQDWLNGKEYKCKVSNKALPAPIEKTISKAKGQPREPQVYTLPPCREEMTKNQVSLWCLVKGFYPSDIAVEWESNGQPENNYKTTPPVLDSDGSFFLYSKLTVDKSRWQQGNVFSCSVMHEALHNHYTQKSLSLSPG
light 1: QSALTQPRSVSGSPGQSVTISCTGTSSDVGGYNYVSWYQQHPGKAPKLMIYDVSKRPSGVPDRFSGSKSGNTASLTISGLQAEDEADYYCSSYTSSDTLEIFGGGTKLTVLGQPKAAPSVTLFPPSSEELQANKATLVCLISDFYPGAVTVAWKADSSPVKAGVETTTPSKQSNNKYAASSYLSLTPEQWKSHRSYSCQVTHEGSTVEKTVAPTECS
light 2: DIQMTQSPSTLSASVGDRVTITCRASEGIYHWLAWYQQKPGKAPKLLIYKASSLASGVPSRFSGSGSGTEFTLTISSLQPDDFATYYCQQYSNYPPTFGGGTKLEIKRTVAAPSVFIFPPCDEQLKSGTASVVCLLNNFYPREAKVQWKVDNALQSGNSQESVTEQDSKDSTYSLSSTLTLSKADYEKHKVYACEVTHQGLSSPVTKSFNRGEV
notes: also called monovalent bispecific EGFR/cMET DuetMAb RAA22/B09; RAA22/B09-Maia
B2: QD6/B09-57 DuetMab (bispecific antibody, human IgG1, kappa, lambda)
heavy 1: B1 heavy 1 with F55V
heavy 2: B1 heavy 2
light 1: B1 light 1 with K55E, S91F
light 2: B1 light 2
notes: also called monovalent bispecific EGFR/cMET DuetMAb QD6/B09

Legend:
[1] = biological target: EGFR and c-MET co-expressed on cells (HCC827, H1975); test: live cell confocal fluorescence microscopy, AF647-labelled antibody pre-bound to H1975 cells
H1975 cells = test: Internalization of AF647-labeled antibodies, live cell confocal fluorescence microscopy; format: cell-based; settings: for internalization half-times: images every 5 min
Description: (§1) Internalization kinetics of AlexaFluor647 (AF647) primary-labeled DuetMabs: RAA22/B09 and QD6/B09 antibodies was assessed in vitro using the EGFR and c-MET expressing cell line, H1975. Each antibody was pre-bound to cells and antibody translocation from cell surface to cytoplasm was then monitored using live cell confocal fluorescence microscopy. Both antibodies localized primarily on the cell surface before (T=0) subjecting to internalization conditions and were translocated to the cytoplasm area after 1 hour (data not shown). Kinetic images were taken every 5 min over the time course of internalization and were processed using a quantitative algorithm to determine internalization kinetic constants and half-times.
To evaluate the mode of antibody internalization and to investigate contribution of each arm to overall internalization of the DuetMabs, we evaluated internalization of single-arm specific control antibody molecules, QD6/IgG and B09/IgG, against duet QD6/B09, and RAA22/IgG and B09/IgG against duet RAA22/B09 in H1975 cells, which express both EGFR and c-MET. Since only one arm is specific for the target receptor, the control antibody can only internalize via one receptor eliminating dual receptor targeting and cross-linking as mode of internalization.

HER2 = biological target: T1, HER2 (UniProt P04626 23-652, limits assumed); test: ELISA: antigen coated at 1 ug/mL, antibody dilution series, goat anti-human Fab-HRP, A450; panel Human HER2
T1 construct: also called EGFR HER family protein HER2

[2] = biological target: EGFR and c-MET co-expressed on cells (HCC827, H1975); test: live cell confocal fluorescence microscopy, AF647-labelled antibody pre-bound to HCC827 cells
Semaphorin 3a = biological target: T2, Semaphorin 3a (UniProt Q14563 21-771, limits assumed); test: ELISA: antigen coated at 1 ug/mL, antibody dilution series, goat anti-human Fab-HRP, A450; panel Human Sema3a
T2 construct: also called Sema 3a
T2 sequence (looked up): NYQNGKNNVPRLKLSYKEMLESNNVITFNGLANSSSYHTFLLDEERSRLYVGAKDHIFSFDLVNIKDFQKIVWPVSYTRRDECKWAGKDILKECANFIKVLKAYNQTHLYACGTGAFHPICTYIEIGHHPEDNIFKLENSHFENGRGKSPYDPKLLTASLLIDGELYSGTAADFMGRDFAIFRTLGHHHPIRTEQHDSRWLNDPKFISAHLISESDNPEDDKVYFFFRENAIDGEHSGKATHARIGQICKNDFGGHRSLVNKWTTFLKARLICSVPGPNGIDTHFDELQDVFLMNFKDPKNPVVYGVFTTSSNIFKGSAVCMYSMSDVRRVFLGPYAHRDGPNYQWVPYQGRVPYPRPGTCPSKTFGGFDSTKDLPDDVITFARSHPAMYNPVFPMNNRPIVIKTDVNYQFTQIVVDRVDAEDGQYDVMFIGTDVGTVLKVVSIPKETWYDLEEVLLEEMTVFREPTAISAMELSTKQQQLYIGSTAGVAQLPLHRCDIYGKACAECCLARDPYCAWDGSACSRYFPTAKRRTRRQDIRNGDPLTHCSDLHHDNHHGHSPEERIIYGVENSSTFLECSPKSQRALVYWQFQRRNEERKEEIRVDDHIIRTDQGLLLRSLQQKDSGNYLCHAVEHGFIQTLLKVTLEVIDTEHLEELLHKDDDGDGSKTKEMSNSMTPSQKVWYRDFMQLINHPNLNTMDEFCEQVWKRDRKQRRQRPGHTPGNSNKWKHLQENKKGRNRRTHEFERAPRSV

HCC827 cells = test: Internalization of AF647-labeled antibodies, live cell confocal fluorescence microscopy; format: cell-based
Description: as §1
Since binding of both EGFR and c-MET arms to target receptor promoted RAA22/B09 receptor internalization in H1975 cells, we examined if the increased number of EGFR and c-MET receptors would affect internalization properties. The respective receptor levels determined by Western Blot were ˜33,000 for EGFR and ˜50,000 for c-MET in H1975 cells and ˜790,000 for EGFR and ˜523,000 for c-MET in HCC827 cells.

[3] = biological target: EGFR and c-MET co-expressed on cells (HCC827, H1975); test: live cell confocal fluorescence microscopy, AF647-labelled antibody pre-bound to cells
Human EGFR = Human EGFR (Homo sapiens, UniProt P00533); test: ELISA species cross reactivity; format: binding; settings: antibody 10 to 0.002 μg/mL
Description: (§2) Specificity for EGFR and cMET species paralogs and closely related family members was determined by ELISA. Briefly, antigen solutions were prepared in PBS at 1 μg/mL and 50 microliters was coated onto half area ELISA assay plates. Plates were washed and blocked with 1% BSA in PBS containing 0.005% Tween-20 (PBS-T) for one hour at room temperature. The wells were washed 4 times in PBS-T. As set out in FIG. 3, the primary antibodies used where: R374 (a non-binding IgG1 isotype control antibody), B09 (anti-cMET antibody), QD6 (anti-EGFR antibody), RAA22 (anti-EGFR antibody), QD6/B09 (bispecific EGFR/c-MET DuetMAb), RAA22/B09 (bispecific EGFR/c-MET DuetMAb), PaniX (anti-EGFR antibody), MetMab (anti-cMET antibody) and Mab11311 (anti-HER4 antibody). Wells were incubated with 50 microliters of the indicated primary antibodies diluted in PBS-T in a 1:3 dilution series, starting at 10 μg/mL and ending at 0.002 μg/mL, except for the HER4 binding mAb control, MAB1131, for which the series started at 1 μg/mL. The wells were washed 4 times in PBS-T, then 50 μl of goat anti-human Fab HRP-labeled secondary antibody, diluted 1:5000 in PBS-T, was added to each well and incubated for one hour at room temperature. […] 50 microliters of TMB stop solution was added to all wells and the absorbance was read at 450 nm on a SpectraMax M5 microplate reader. Data were analyzed in the SoftMax Pro 5 software and plotted using GraphPad Prism 7 graphing software.
(§3) To determine the species cross reactivity, ELISA assays were carried out as described above. […] There was no detectable binding of any of the antibodies to mouse cMET.

Mouse EGFR = biological target: T3, Mouse EGFR (Mus musculus, UniProt Q01279); test: ELISA species cross reactivity; format: binding
T3 construct: purchased SinoBiological 51091-M08H
Description: as §2, §3

Cynomolgus monkey EGFR = test: ELISA species cross reactivity; format: binding
Description: as §2, §3

Molecule	MFI at T=0 [1] [MFI]	binding at T=0 (H1975 cells)	cytoplasmic intensity values, fold higher than B09-IgG (H1975 cells) [fold]	cytoplasmic intensity values, fold higher than RAA22-IgG (H1975 cells) [fold]	internalization half-times (H1975 cells) [min]	binding result (HER2)	MFI at T=0 [2] [MFI]	binding result (Semaphorin 3a)	internalization levels (peak cytoplasmic intensity), fold higher in HCC827 cells than H1975 (HCC827 cells) [fold]	binding at T=0 (HCC827 cells; HCC827 cells)	internalization profile (HCC827 cells; HCC827 cells)	binding to HCC827 cells, fold higher than H1975 (HCC827 cells; T=0) [fold]	fold binding, HCC827 cells against H1975 cells [3] [fold]	ELISA binding (Human EGFR)	ELISA binding (Mouse EGFR)	ELISA binding (Cynomolgus monkey EGFR)
B1	3.5e+06	3.5×10^6 MFI	4.70	10.98	43.2 ± 15.5	no binding (tested: 10 ug/ml)	3.1e+07	no binding (tested: 10 ug/ml)	21.7	3.1×10^7 MFI	markedly increased internalization in HCC827 cells	8.9	8.9	still weaker binding	nominal binding	still weaker binding
B2	–	–	–	–	37.5 ± 10.6	no binding (tested: 10 ug/ml)	–	no binding (tested: 10 ug/ml)	–	–	–	–	–	gave robust signals	gave robust signals	gave robust signals
